Reference: patent US12697350B2, “Methods and compositions for treating a premature termination codon-mediated disorder” (Tevard Biosciences, Inc., priority 2019, dated 2026)

System: Neuro-2a cells
Assay type: cell-based, mouse
Protocol: FIG. 23 is a graph depicting cell viability from FIG. 22 as measured by flow cytometry at ~48 hours post transfection. Neuro-2a cells were transfected with an expression construct containing the EGFP-R96X-TGA reporter (“GFP-PTC”) and either (i) transfected with an expression construct including the ArgTCA suppressor tRNA #115 (SEQ ID NO: 18) at the indicated copy number on the same construct, or (ii) treated with ataluren at the indicated concentration, (iii) treated with gentamicin at the indication concentration, or (iv) treated with G418 at the indicated concentration. For all experimental conditions, cell culture medium was replaced with fresh medium ~6 hour after transfection and the indicated drugs at the indicated concentrations were added at this point. A reporter containing wildtype GFP without a PTC (“WT-GFP”) was used as a control. “Mock” indicates mock transfected cells. “4×TCG” indicates cells transfected with an expression construct that contains four copies of a wild-type Arg-tRNA with a TCG anticodon and the EGFP-R96X-TGA reporter. Cell viability was assessed by flow cytometry using 7-Amino Actinomycin D (7-AAD), a membrane impermeant dye that is generally excluded from viable cells.
FIG. 34 is a graph depicting cell viability from FIG. 33 as measured by flow cytometry at ~48 hours post transfection. […] Cell viability was assessed by flow cytometry using 7-Amino Actinomycin D (7-AAD), a membrane impermeant dye that is generally excluded from viable cells.
FIG. 36 is a graph depicting cell viability from FIG. 35 as measured by flow cytometry at ~48 hours post transfection. […] Cell viability was assessed by flow cytometry using 7-Amino Actinomycin D (7-AAD), a membrane impermeant dye that is generally excluded from viable cells. […]

B1: tRNA-Arg-TCT-2-1-TCA-SUP_no intron (nucleic acid)
chain: GGCTCCGTGGCGCAATGGATAGCGCATTGGACTTCAAATTCAAAGGTTCCGGGTTCGAGTCCCGGCGGAGTCG
modifications: chemistry not fully specified
- cell viability: not accompanied by a decrease in cell viability
